Experimental findings from patent US20070042500A1, “Direct observation of molecular modifications in biological test systems by measuring flourescence lifetime” (Bayer Healthcare AG, priority 2003, published 2007) are described below.

The nature of data set [1]: Fluorescence lifetime (FLT) of phosphorylated vs non-phosphorylated fluoresceine-peptide conjugate, Ultra FLT prototype (Tecan). In kind it is physicochemical. The settings on record: 10 nM in 50 mM HEPES pH 7.5; mean of 10 measurements of 1 s. The procedure: It was intended to investigate whether there is a difference between the fluorescence lifetimes (FLTs) of the fluoresceine-peptide conjugates Fl-P1 and Fl-1. For this purpose, in each case 10 nM Fl-P1 and Fl-1 were dissolved in 50 mM HEPES pH 7.5. The fluorescence lifetimes (FLTs) were measured by means of an Ultra FLT prototype (Tecan). In each case, 10 measurements of 1 s each were averaged.

A short description of data set [2]: FLT of potential reactant and product of the TAFI enzyme reaction. In kind it is physicochemical. The note with it: 60 nM; independent of pH (6-9.5) and NaCl concentration (200 mM, 2 M). An excerpt: The enzyme thrombin activated with fibrinolysis inhibitor (TAFI) is a carboxypeptidase which plays an important part in thromboses. TAFI cleaves the arginine of the peptide sequence IFTR. This reaction may be detected by either mass spectrometric or chromatographic methods. Both methods are not suitable for high throughput substance testing. Alternatively, more or less complex enzyme cascades or chemical reactions may be used which generate a measurable absorption, fluorescence or luminescence signal. No method has been described to date with which the TAFI reaction can be measured directly and which is suitable at the same time for higher throughput. Therefore, the fluorescence lifetimes of the conjugates FJ23 and FJ24 which both carry a fluorescent dye excitable at 630 nm (Evoblue30, Mobitec) and which differ only in the FJ24 conjugate lacking the C-terminal arginine were measured. FJ23 is a potential reactant of the TAFI reaction, while FJ24 would be the corresponding reaction product. The FJ23 and FJ24 conjugates were dissolved at a concentration of 60 nM in various buffers with pH values of 6, 7, 8 and 9.5, and in the presence of 200 mM and 2 M NaCl.

The nature of data set [3]: FLT difference between phosphorylated and non-phosphorylated fluoresceine-kemptide under various pH/NaCl conditions. In kind it is physicochemical. The note with it: 50 nM; pH 6.0 to 9.5 buffers. The procedure: 0.1 M NaOH, 50 mM borate buffer pH 9.5, 50 mM HEPES buffer pH 8.0, 50 mM HEPES buffer pH 7.0, 50 mM MES buffer pH 6.0, 200 mM NaCl (low)
The quality of an FLT assay improves with increasing differences of the fluorescence lifetimes of reactant and product. An optimally large FLT difference will not be measured immediately in every case. On the other hand, it should be possible to increase the FLT difference initially obtained, for example by selecting and combining various parameters such as, for example, fluorescent dye, spacer molecule between dye and substrate molecule, or polarity, pH, ionic strength of the solvent or other additive. […] In each case 50 nM Fl-P-kemptide and Fl-kemptide were dissolved in the solutions described under Material, and their FLTs were measured by means of a modified Nanoscan instrument (IOM GmbH, Berlin, Germany) which transferred the signals to a transient recorder. 16 decay curves were averaged for each data point. The descending part of the logarithmic-scale curve was evaluated by means of linear regression and the negative slope was mathematically converted into FLT.

Another data set has as its target PDE1b phosphodiesterase (Homo sapiens, UniProt Q01064). In words: PDE reaction with Fl-cAMP followed directly by fluorescence lifetime. In kind it is biochemical. The settings on record: without inhibitor. The procedure: Like the phosphatases and kinases discussed above, phosphodiesterases are a very important class of targets, inter alia in the fields of indication of cardiovascular, metabolic disorders, central nervous system, cancer and respiratory diseases. It is therefore of great interest to have a generic assay format which can measure the conversion of cAMP or cGMP to the respective monophosphate. Usually detection enzyme cascades are used. […] In the experiment, first 1 μM Fl-cAMP and a 1:360 dilution of PDE1b were mixed in the presence of different concentrations of the inhibitor BAY 383045. The kinetics of the enzyme reaction was measured by means of an Ultra FLT prototype (Tecan) at room temperature.

PDE1b phosphodiesterase, sequence (Q01064 whole entry): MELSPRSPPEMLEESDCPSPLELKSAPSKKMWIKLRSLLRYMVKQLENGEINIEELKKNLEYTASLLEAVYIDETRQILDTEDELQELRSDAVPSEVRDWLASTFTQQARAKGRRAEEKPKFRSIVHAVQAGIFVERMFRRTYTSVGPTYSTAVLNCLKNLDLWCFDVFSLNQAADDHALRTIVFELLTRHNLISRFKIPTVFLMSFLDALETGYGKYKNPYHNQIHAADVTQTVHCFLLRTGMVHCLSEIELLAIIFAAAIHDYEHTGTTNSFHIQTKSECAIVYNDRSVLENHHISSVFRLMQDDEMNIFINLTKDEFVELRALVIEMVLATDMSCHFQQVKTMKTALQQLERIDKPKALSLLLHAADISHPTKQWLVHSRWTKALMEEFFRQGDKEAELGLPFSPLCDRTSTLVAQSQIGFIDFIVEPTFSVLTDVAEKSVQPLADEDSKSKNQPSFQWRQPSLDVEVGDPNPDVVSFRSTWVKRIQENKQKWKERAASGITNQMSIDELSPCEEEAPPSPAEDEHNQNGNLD

In the case of “fluoresceine-C6-TEGQYQPQP-COOH ({fluorescein-C6}-TEGQYQPQP-OH) [Fl-1]”, in data set [1], the “fluorescence lifetime (FLT)” value was found to be 3600 ps. The molecule Evoblue30-Ttds(Spacer)-IFTR-COOH [FJ24] gave a fluorescence lifetime in data set [2] of 2194±18 ps.

In the case of “fluoresceine-C6-LRRApSLGCONH2 [Fl-P-kemptide]”, the “differentiation of phosphorylated and non-phosphorylated form by means of FLT” value in data set [3] was “improves when the pH increases from 6.0 to 9.5”.

As for “fluoresceine-C6-LRRASLGCONH2 [Fl-kemptide]”, the “differentiation of phosphorylated and non-phosphorylated form by means of FLT” value in data set [3] was “improves when the pH increases from 6.0 to 9.5”. Turning to fluoresceine-C6-TEGQYpQPQP-COOH [Fl-P1], the “fluorescence lifetime (FLT)” value in data set [1] stood at 3880 ps. `Nc1ncnc2c1nc(SCCNC(=S)Nc1ccc(-c3c4ccc(=O)cc-4oc4cc(O)ccc34)c(C(=O)O)c1)n2C1OC2COP(=O)(O)OC2C1O` (stereo not shown) [Fl-cAMP, 8-fluo-cAMP]: the “fluorescence lifetime at start of PDE1b reaction” value at PDE1b phosphodiesterase (1 μM Fl-cAMP, start of reaction) was “approx. 3500 ps”. The “fluorescence lifetime after PDE1b reaction (conversion to Fl-AMP)” value at PDE1b phosphodiesterase (within 100 minutes of reaction) is recorded as “approx. 3350 ps”.
